Here are results for 18 molecules from patent US20160326228A1 (ACCELERON PHARMA, published 2016).

T1: Growth and Differentiation Factor-11 (GDF11) (UniProt O95390 299-407)
T1 sequence (looked up): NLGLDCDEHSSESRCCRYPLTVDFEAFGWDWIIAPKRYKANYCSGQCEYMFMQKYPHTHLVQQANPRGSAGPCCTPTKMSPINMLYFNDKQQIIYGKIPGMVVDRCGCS

T2: Activin A (UniProt P08476 311-426)
T2 sequence (looked up): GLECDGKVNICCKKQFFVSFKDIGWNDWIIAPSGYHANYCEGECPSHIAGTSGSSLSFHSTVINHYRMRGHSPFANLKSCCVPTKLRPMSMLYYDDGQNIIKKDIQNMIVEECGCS

T3: Activin B (UniProt P09529 293-407)
T3 sequence (looked up): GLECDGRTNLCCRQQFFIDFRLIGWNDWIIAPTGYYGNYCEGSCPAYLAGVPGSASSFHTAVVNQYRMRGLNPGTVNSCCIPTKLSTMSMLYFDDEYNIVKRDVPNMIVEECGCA

T4: Growth and Differentiation Factor-8 (GDF8) (UniProt O14793 267-375)
T4 construct: also called myostatin
T4 sequence (looked up): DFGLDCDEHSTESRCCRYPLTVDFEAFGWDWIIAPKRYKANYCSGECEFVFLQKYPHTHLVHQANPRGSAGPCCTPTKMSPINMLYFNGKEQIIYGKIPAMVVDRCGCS

B1: ActRIIB(20-134)-hFc (Fc fusion)
chain: GRGEAETRECIYYNANWELERTNQSGLERCEGEQDKRLHCYASWRNSSGTIELVKKGCWLDDFNCYDRQECVATEENPQVYFCCCEGNFCNERFTHLPEAGGPEVTYEPPPTAPT
notes: not shown: linker (if any) and human Fc (hFc)
B2: ActRIIB(L79D 20-134)-hFc (Fc fusion)
chain: GRGEAETRECIYYNANWELERTNQSGLERCEGEQDKRLHCYASWRNSSGTIELVKKGCWDDDFNCYDRQECVATEENPQVYFCCCEGNFCNERFTHLPEAGGPEVTYEPPPTAPTGGGTHTCPPCPAPELLGGPSVFLFPPKPKDTLMISRTPEVTCVVVDVSHEDPEVKFNWYVDGVEVHNAKTKPREEQYNSTYRVVSVLTVLHQDWLNGKEYKCKVSNKALPVPIEKTISKAKGQPREPQVYTLPPSREEMTKNQVSLTCLVKGFYPSDIAVEWESNGQPENNYKTTPPVLDSDGSFFLYSKLTVDKSRWQQGNVFSCSVMHEALHNHYTQKSLSLSPGK
notes: also called GDF Trap
B3: ActRIIB(L79 25-131)-hFc (Fc fusion)
chain: ETRECIYYNANWELERTNQSGLERCEGEQDKRLHCYASWRNSSGTIELVKKGCWLDDFNCYDRQECVATEENPQVYFCCCEGNFCNERFTHLPEAGGPEVTYEPPPT
notes: also called ActRIIB(25-131)-hFc; not shown: linker (if any) and human Fc (hFc)
B4: Soluble ActRIIB-Fc variant D80K (Fc fusion)
chain: GRGEAETRECIYYNANWELERTNQSGLERCEGEQDKRLHCYASWANSSGTIELVKKGCWLKDFNCYDRQECVATEENPQVYFCCCEGNFCNERFTHLPEA
notes: whole entry named; not shown: linker (if any) and Fc
B5: Soluble ActRIIB-Fc variant K74A (Fc fusion)
chain: B4 chain with K55A, K61D
notes: as for B4
B6: Soluble ActRIIB-Fc variant W78A (Fc fusion)
chain: B4 chain with W59A, K61D
notes: as for B4
B7: Soluble ActRIIB-Fc variant K74I (Fc fusion)
chain: B4 chain with K55I, K61D
notes: as for B4
B8: Soluble ActRIIB-Fc variant K74F (Fc fusion)
chain: B4 chain with K55F, K61D
notes: as for B4
B9: Soluble ActRIIB-Fc variant K74Y (Fc fusion)
chain: B4 chain with K55Y, K61D
notes: as for B4
B10: Soluble ActRIIB-Fc variant D80I (Fc fusion)
chain: B4 chain with K61I
notes: as for B4
B11: ActRIIB(L79E 20-134)-hFc (Fc fusion)
chain: B2 chain with D60E
B12: ActRIIB(R64K 20-134)-hFc (Fc fusion)
chain: B1 chain with R45K
notes: as for B1
B13: ActRIIB(A24N 20-134)-hFc (Fc fusion)
chain: B1 chain with A5N
notes: also called A24N variant; not shown: linker (if any) and human Fc (hFc)
B14: ActRIIB(R64K 20-129)-hFc (Fc fusion)
chain: GRGEAETRECIYYNANWELERTNQSGLERCEGEQDKRLHCYASWKNSSGTIELVKKGCWLDDFNCYDRQECVATEENPQVYFCCCEGNFCNERFTHLPEAGGPEVTYEPP
notes: as for B1
B15: ActRIIB(P129S, P130R 20-134)-hFc (Fc fusion)
chain: B1 chain with P110S, P111R
notes: T0017 prints a P129S P130A variant; kept as a separate molecule; not shown: linker (if any) and human Fc (hFc)
B16: ActRIIB(K74A 20-134)-hFc (Fc fusion)
chain: B1 chain with K55A
notes: as for B1
B17: Soluble ActRIIB-Fc +15tail (Fc fusion, UniProt Q13705 19-134, looked up)
chain: SGRGEAETRECIYYNANWELERTNQSGLERCEGEQDKRLHCYASWANSSGTIELVKKGCWLDDFNCYDRQECVATEENPQVYFCCCEGNFCNERFTHLPEAGGPEVTYEPPPTAPT
notes: as for B4
B18: Soluble ActRIIB-Fc WT (64R) (Fc fusion)
chain: B4 chain with A45R, K61D
notes: as for B4

Residue numbers refer to the chain shown, from its start. Names may count otherwise.

The target in the first experiment is T1, Growth and Differentiation Factor-11 …. The experiment is described as follows: cell-based or functional assay.
For the molecule B1, the “IC50 (ng/mL), A-204 reporter gene assay, conditioned media” value worked out at 45 ng/mL.

The target of another experiment is T2, Activin A. The experiment is described as follows: cell-based or functional assay.
Turning to B1, the “IC50 (ng/mL), A-204 reporter gene assay, conditioned media” value was 22 ng/mL.

Another experiment concerns the target T1, Growth and Differentiation Factor-11 …. In words: Biacore; steady-state affinity fit. On the procedure: (§1) The affinity of GDF Traps and other ActRIIB-hFc proteins for several ligands was evaluated in vitro with a BiacoreTM instrument. Kd values were obtained by steady-state affinity fit due to the very rapid association and dissociation of the complex, which prevented accurate determination of kₒₙ and koff.
B2: the affinity, expressed as Kd, was 0.123 nM. This lies in the sub-nanomolar range.
Same read-out and setting: the result for B3 reads 0.031 nM.

Another experiment concerns the target T2, Activin A. In words: Biacore; steady-state affinity fit. Here is the method:
as §1
Consider B2, for which the Kd (commonly the concentration at which binding is half-saturated) turned out to be 13.5 nM. In other words, the double-digit nanomolar range.
Consider B1, for which the equilibrium dissociation constant (Kd) worked out at 0.016 nM.
For B3, the Kd amounted to 0.018 nM.

The next experiment addresses T3, Activin B. In words: Biacore; steady-state affinity fit. On the procedure:
as §1
(In general: SPR reads the build-up and loss of mass on a sensor chip optically.)
Turning to B2, binding was characterised by a dissociation constant (Kd) of 0.788 nM.
Consider B1, for which the Kd worked out at 0.012 nM. This Kd is about 66-fold lower than that of the molecule before.
In turn, B3 yielded a Kd of 0.012 nM. This lies in the picomolar range.

Another experiment concerns the target T1, Growth and Differentiation Factor-11 …. In words: BiaCore; ligand coupled, receptor flowed over.
Take B4: the binding result is reported as “no binding”.
B5 gave a dissociation constant Kd of 5.3 nM.
Turning to B6, the binding result was “no binding”.

The next experiment concerns the target T2, Activin A. In words: BiaCore; ligand coupled, receptor flowed over.
Regarding B4, the binding result was “no binding”.
Regarding B7, the binding result is recorded as “no binding”.
On the same count and under the same terms, the result for B8 reads “no binding”.
B9: the binding result is on record as “no binding”.
Regarding B5, binding was put at a Kd of 4.35 nM.
With B6, the binding result is on record as “no binding”.
Consider B10, for which the binding result is on record as “no binding”.

The target of another experiment is T1, Growth and Differentiation Factor-11 …. In words: BiaCore; receptor-Fc captured by anti-hFc antibody, ligand injected. Here is the method: (§2) Binding of certain ActRIIB-Fc proteins and GDF Traps to ligands was tested in a BiaCore™ assay.
(§3) The ActRIIB-Fc variants or wild-type protein were captured onto the system using an anti-hFc antibody. Ligands were injected and flowed over the captured receptor proteins.
B2: the Kd was determined as 0.655 nM and the dissociation rate constant (koff) (usually the first-order rate constant of dissociation) is 0.000439 s⁻¹.
B11 returned a Kd of 0.716 nM and a dissociation rate constant (koff) of 0.000274 s⁻¹.
As to B12, the Kd was 0.0356 nM and the off-rate (koff) was 2.41e-05 s⁻¹.
Take B13: the dissociation constant Kd came out at 0.0519 nM and the off-rate (koff) is 6.35e-05 s⁻¹.

Another experiment deals with T2, Activin A. The description is as above. On the procedure:
as §2, §3
As for B14, binding was characterised by a dissociation constant (Kd) of 0.0841 nM, the koff is 0.000628 s⁻¹ and the kon (commonly a measure of how fast the partners come together) was 7.46e+06 M⁻¹ s⁻¹.
With B1, binding was characterised by a dissociation constant (Kd) of 0.0268 nM, the dissociation rate constant (koff) amounted to 0.000159 s⁻¹ and the kon was determined as 5.94e+06 M⁻¹ s⁻¹.
B12 returned a Kd of 0.0476 nM, a dissociation rate constant (koff) of 0.000325 s⁻¹ and a kon of 6.82e+06 M⁻¹ s⁻¹.
The corresponding values for B13 are 0.104 nM, 0.000346 s⁻¹ and 3.34e+06 M⁻¹ s⁻¹.
In turn, B15 came in with a Kd of 0.0831 nM, a koff of 0.000417 s⁻¹ and a kon of 5.02e+06 M⁻¹ s⁻¹.

Another experiment deals with T4, Growth and Differentiation Factor-8 …. The experiment is described as above. Here is the method:
as §2, §3
As to B2, the Kd was found to be 2.15 nM and the koff stood at 0.00083 s⁻¹.
B11 registered a Kd of 2.41 nM and a koff of 0.0009 s⁻¹.
Molecule B14 came in with a Kd of 2.15 nM and a koff of 0.000209 s⁻¹.
For the molecule B12, binding was characterised by a dissociation constant (Kd) of 0.21 nM and the off-rate (koff) was determined as 4.71e-05 s⁻¹.
The matching figures for B16: 0.0718 nM and 2.03e-05 s⁻¹.
Molecule B15 returned a dissociation constant Kd of 1.67 nM and a koff of 0.00018 s⁻¹.

Another experiment concerns the target T1, Growth and Differentiation Factor-11 …. The experiment is described as follows: BiaCore; ligand coupled, receptor flowed over; legend: <1/5 WT binding.
With B7, the “binding relative to WT” value was under 0.2 fold.
For the molecule B8, the “binding relative to WT” value was under 0.2 fold.
On the same count and under the same terms, the result for B9 reads under 0.2 fold; that for B10, under 0.2 fold.

For another experiment, the target named is T2, Activin A. The experiment is described as follows: BiaCore; ligand coupled, receptor flowed over; ligand coupled to the device, receptor flowed over (data from WO2006/012627).
B17 gave a Kd of about 26 nM.

The target of a further experiment is T1, Growth and Differentiation Factor-11 …. In words: BiaCore; ligand coupled, receptor flowed over; WT (64R) construct; ligand coupled to the device, receptor flowed over (data from WO2006/012627).
Take B18: the equilibrium dissociation constant (Kd) came out at 86 nM.
